The values below come from US20050260595A1.

Assay [1] addresses human dopamine D1 receptor protein (human) (UniProt P21728). Briefly: cell-based or functional assay.
Assay [2] concerns the target human adenosine A2a receptor protein (human) (UniProt P29274). Nature of the assay: cell-based or functional assay.

Sequence of human adenosine A2a receptor protein (human) (P29274 whole entry): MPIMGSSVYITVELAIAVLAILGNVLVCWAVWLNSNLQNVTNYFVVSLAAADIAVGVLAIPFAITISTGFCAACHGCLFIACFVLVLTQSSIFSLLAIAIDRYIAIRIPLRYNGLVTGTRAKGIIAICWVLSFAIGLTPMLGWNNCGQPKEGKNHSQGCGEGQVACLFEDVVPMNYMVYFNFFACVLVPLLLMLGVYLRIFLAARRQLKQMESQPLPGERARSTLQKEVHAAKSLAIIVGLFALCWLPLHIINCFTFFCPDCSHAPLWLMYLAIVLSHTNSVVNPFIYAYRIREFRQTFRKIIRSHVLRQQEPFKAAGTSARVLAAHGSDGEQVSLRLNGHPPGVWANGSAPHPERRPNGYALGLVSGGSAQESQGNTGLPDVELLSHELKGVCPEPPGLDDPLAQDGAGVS
Sequence of human dopamine D1 receptor protein (human) (P21728 whole entry): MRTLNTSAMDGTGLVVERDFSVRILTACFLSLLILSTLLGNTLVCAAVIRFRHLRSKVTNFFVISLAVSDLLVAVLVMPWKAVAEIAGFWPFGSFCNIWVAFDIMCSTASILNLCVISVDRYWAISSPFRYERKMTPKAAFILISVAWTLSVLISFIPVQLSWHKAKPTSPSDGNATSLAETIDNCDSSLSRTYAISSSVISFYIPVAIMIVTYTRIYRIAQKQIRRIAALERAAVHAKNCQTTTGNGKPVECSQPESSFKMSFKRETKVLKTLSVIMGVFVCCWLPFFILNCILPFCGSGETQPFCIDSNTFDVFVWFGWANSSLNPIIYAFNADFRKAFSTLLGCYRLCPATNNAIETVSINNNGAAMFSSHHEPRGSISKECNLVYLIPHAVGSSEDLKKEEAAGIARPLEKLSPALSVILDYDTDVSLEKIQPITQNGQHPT

Turning to human Gm1 protein, the cAMP level (HitHunter ECF cyclic AMP chemiluminescent assay; CHO cells co-expressing Gm1 and dopamine D1 receptor, 10 µM dopamine; cells expressing only the D1 receptor = 100%, no contact = 0%) in assay [1] amounted to 127%. This substance had a cAMP level (HitHunter ECF cyclic AMP chemiluminescent assay; CHO cells co-expressing Gm1 and adenosine A2a receptor, 10 µM adenosine; cells expressing only the A2a receptor = 100%, no contact = 0%) in assay [2] of 134%.
